Reference: US11110182B2, “Multifunctional RNA nanoparticles and methods for treating cancer and therapeutic resistant cancer” (University of Cincinnati, priority 2016, dated 2021)

Tested on: MDA-MB-231 cells
Assay: pRNA nanoparticle cellular uptake assay (confocal, flow cytometry), MDA-MB-231
Type: cell-based, human
Conditions: MDA-MB-231 (HER2-negative), AF647-conjugated, 10 μg/mL, confocal microscopy
Excerpt: FIG. 8A) HER2 expression in BT474 and MDA-MB-231 cells determined by western blot analyses. FIG. 8B) The binding of AF-647-labeled pRNA-HER2apt-siMED1 and its mutant nanoparticles to MDA-MB-231 and BT474 cells examined by confocal microscopy. Green represents the immunofluorescent staining of HER2, and blue represents nuclear staining with DAPI. FIG. 8C) The internalization of AF647-labeled pRNA nanoparticles by MDA-MB-231 cells examined by confocal microscopy. Green represents the immunofluorescent staining of β-actin. Scale bar: 10 μm. FIG. 8D) The cellular uptake of AF647-labeled pRNA nanoparticles by MDA-MB-231 cells quantified by flow cytometry. FIG. 8E) HER2 expression in BT474 xenograft tumors was examined by western blot analyses. FIG. 8F) MDA-MB-231 cells were incubated directly with (as indicated by-) or transfected with pRNAs using lipofectamine 2000. At 48 h post treatment, MED1 protein levels were determined by western blots.
Cell culture. […] The hydrodynamic diameter and Tm value of pRNA nanoparticles were determined using dynamic light scattering and TGGE assay, respectively, as previously described.^54 The AFM imaging of the pRNA nanoparticles was performed at the University of Nebraska Medical Center imaging facility as previously reported.^55 Briefly, the pRNA nanoparticles (5 μL) were deposited on APS modified mica ^56 for a total of 2 min of incubation time. […]

B1: pRNA-HER2apt-siMED1: 3-WJ pRNA nanoparticle bearing a HER2-targeting RNA aptamer and two different MED1 siRNAs; strands p1 SEQ ID NO: 3, p2 SEQ ID NO: 4 (nucleic acid)
chain 1: GGACAGUGAAAGUGAGUCAAAGGAUCAAUCAUGGCCAAAGAUGUUACUUUGAGAGCCUU
chain 2: GGCUCUCAAAGUAACAUCUAAGGCCAUGUGUAUGUGGGGGGAGGACGAUGCGGUCUGCUGUGCUUGAUAUGCCCCAGACGACUCGCCCCCCACAUACUUUGUUGAUCCAAUGACUCACUUUCACUGUCCUU
modifications: 2'-F modification; third strand may lack entry; pRNA-HER2apt-siMED1, p1; pRNA-HER2apt-siMED1, p2
  binding and internalization into cells: not
